Measurements reported in publication PMC9508239 (Nature Communications, 2022).

Molecular target: the molecule itself
Experiment: cryo-EM structure; purified MmIR dimer fraction (20 mM Hepes-Na pH 7.4, 150 mM NaCl, 0.03% DDM) mixed with synthesized S597-component-2 (S597-N20) at 1:4 (m:m), incubated half an hour, 4 °C, concentrated to 6 mg/ml

B1: full-length mouse insulin receptor, short isoform, with kinase-dead mutation D1122N and mutation Y962F (receptor, UniProt P15208 28-1372, looked up)
chain: HLYPGEVCPGMDIRNNLTRLHELENCSVIEGHLQILLMFKTRPEDFRDLSFPKLIMITDYLLLFRVYGLESLKDLFPNLTVIRGSRLFFNYALVIFEMVHLKELGLYNLMNITRGSVRIEKNNELCYLATIDWSRILDSVEDNYIVLNKDDNEECGDVCPGTAKGKTNCPATVINGQFVERCWTHSHCQKVCPTICKSHGCTAEGLCCHKECLGNCSEPDDPTKCVACRNFYLDGQCVETCPPPYYHFQDWRCVNFSFCQDLHFKCRNSRKPGCHQYVIHNNKCIPECPSGYTMNSSNLMCTPCLGPCPKVCQILEGEKTIDSVTSAQELRGCTVINGSLIINIRGGNNLAAELEANLGLIEEISGFLKIRRSYALVSLSFFRKLHLIRGETLEIGNYSFYALDNQNLRQLWDWSKHNLTITQGKLFFHYNPKLCLSEIHKMEEVSGTKGRQERNDIALKTNGDQASCENELLKFSFIRTSFDKILLRWEPYWPPDFRDLLGFMLFYKEAPYQNVTEFDGQDACGSNSWTVVDIDPPQRSNDPKSQTPSHPGWLMRGLKPWTQYAIFVKTLVTFSDERRTYGAKSDIIYVQTDATNPSVPLDPISVSNSSSQIILKWKPPSDPNGNITHYLVYWERQAEDSELFELDYCLKGLKLPSRTWSPPFESDDSQKHNQSEYDDSASECCSCPKTDSQILKELEESSFRKTFEDYLHNVVFVPRPSRKRRSLEEVGNVTATTLTLPDFPNVSSTIVPTSQEEHRPFEKVVNKESLVISGLRHFTGYRIELQACNQDSPDERCSVAAYVSARTMPEAKADDIVGPVTHEIFENNVVHLMWQEPKEPNGLIVLYEVSYRRYGDEELHLCVSRKHFALERGCRLRGLSPGNYSVRVRATSLAGNGSWTEPTYFYVTDYLDVPSNIAKIIIGPLIFVFLFSVVIGSIYLFLRKRQPDGPMGPLYASSNPEFLSASDVFPSSVYVPDEWEVPREKITLLRELGQGSFGMVYEGNAKDIIKGEAETRVAVKTVNESASLRERIEFLNEASVMKGFTCHHVVRLLGVVSKGQPTLVVMELMAHGDLKSHLRSLRPDAENNPGRPPPTLQEMIQMTAEIADGMAYLNAKKFVHRNLAARNCMVAHDFTVKIGDFGMTRDIYETDYYRKGGKGLLPVRWMSPESLKDGVFTASSDMWSFGVVLWEITSLAEQPYQGLSNEQVLKFVMDGGYLDPPDNCPERLTDLMRMCWQFNPKMRPTFLEIVNLLKDDLHPSFPEVSFFYSEENKAPESEELEMEFEDMENVPLDRSSHCQREEAGGREGGSSLSIKRTYDEHIPYTHMNGGKKNGRVLTLPRSNPS
notes: insulin receptor, mouse, short isoform (A isoform), full length; Disulfide-linked dimer; The proreceptor is written as one chain; An HRV-3C site lay between the receptor and Tsi3; also called MmIR; IR; source: FreeStyle 293-F cells (BacMam), purified (DDM extraction, Tse3 resin, HRV-3C elution, Superose 6; dimer fraction); not shown: Tsi3, C-terminal, cleaved
Question: Does B1 bind?
Answer: binds
